Reference: patent US20250090699A1, “FAP TARGETING CYCLIC PEPTIDES AND CONJUGATES THEREOF” (Novartis AG, priority 2023, published 2025)
Where a name gives a salt, the structure may show the parent alone. Starred links: 1 amine or outer side, 2 acyl side, 3 side chain; linkers in the order of their positions; H or OH if unused. Non-standard residues stand in square brackets, D forms with d. Residues, ends and D or L forms follow the SMILES beside them. *: point of attachment. F(4amPEG2NHDOTA-Lu) = lutetium complex of (S)-2,2',2''-(10-(1-(4-(2-amino-2-carboxyethyl)phenyl)-3,12-dioxo-5,8-dioxa-2,11-diazatridecan-13-yl)-1,4,7,10-tetraazacyclododecane-1,4,7-triyl)triacetic acid (Phe with 4-aminomethyl-PEG2-DOTA-Lu), O=C([O-])CN1CCN(CC(=O)[O-])CCN(CC(=O)NCCOCCOCC(=O)NCc2ccc(C[C@H](N[*:1])C(=O)[*:2])cc2)CCN(CC(=O)[O-])CC1.[Lu+3]; F(4amPEG2NHDOTA-Ga) = gallium complex of (S)-2,2',2''-(10-(1-(4-(2-amino-2-carboxyethyl)phenyl)-3,12-dioxo-5,8-dioxa-2,11-diazatridecan-13-yl)-1,4,7,10-tetraazacyclododecane-1,4,7-triyl)triacetic acid (Phe with 4-aminomethyl-PEG2-DOTA-Ga), O=C([O-])CN1CCN(CC(=O)[O-])CCN(CC(=O)NCCOCCOCC(=O)NCc2ccc(C[C@H](N[*:1])C(=O)[*:2])cc2)CCN(CC(=O)[O-])CC1.[Ga+3]; COpipzaa = 4-(carboxymethyl)piperazine-1-carbonyl, O=C(O)CN1CCN(C(=O)*)CC1; F(4amPEG2NHRDOTAGA-Lu) = Phe with 4-aminomethyl-PEG2-NH-DOTAGA, Lu complex; hS(Pr) = O-propyl-L-homoserine, CCCOCC[C@H](N[*:1])C(=O)[*:2]; NMeCha = CN[C@@H](CC1CCCCC1)C(=O)O; NMeF = CN[C@@H](Cc1ccccc1)C(=O)O; d(αMeP) = C[C@]1(C(=O)O)CCCN1; Ahp(2) = CCCCC[C@H](N)C(=O)O

Legend:
mouse FAP [1] = molecular target: T1, mouse FAP (Mus musculus, UniProt P97321); assay: Enzymatic FAP competition assay (Z-Gly-Pro-AMC fluorescence), mouse FAP; format: biochemical; details: read-out: m. FAP, Enz., IC50
T1 construct: biotinylated His, Avi tag, mouse FAP (26-761, FAP-M82Q5); His; Avi tag (biotinylated); purchased AcroBiosystems FAP-M82Q5
T1 sequence (P97321 26-761): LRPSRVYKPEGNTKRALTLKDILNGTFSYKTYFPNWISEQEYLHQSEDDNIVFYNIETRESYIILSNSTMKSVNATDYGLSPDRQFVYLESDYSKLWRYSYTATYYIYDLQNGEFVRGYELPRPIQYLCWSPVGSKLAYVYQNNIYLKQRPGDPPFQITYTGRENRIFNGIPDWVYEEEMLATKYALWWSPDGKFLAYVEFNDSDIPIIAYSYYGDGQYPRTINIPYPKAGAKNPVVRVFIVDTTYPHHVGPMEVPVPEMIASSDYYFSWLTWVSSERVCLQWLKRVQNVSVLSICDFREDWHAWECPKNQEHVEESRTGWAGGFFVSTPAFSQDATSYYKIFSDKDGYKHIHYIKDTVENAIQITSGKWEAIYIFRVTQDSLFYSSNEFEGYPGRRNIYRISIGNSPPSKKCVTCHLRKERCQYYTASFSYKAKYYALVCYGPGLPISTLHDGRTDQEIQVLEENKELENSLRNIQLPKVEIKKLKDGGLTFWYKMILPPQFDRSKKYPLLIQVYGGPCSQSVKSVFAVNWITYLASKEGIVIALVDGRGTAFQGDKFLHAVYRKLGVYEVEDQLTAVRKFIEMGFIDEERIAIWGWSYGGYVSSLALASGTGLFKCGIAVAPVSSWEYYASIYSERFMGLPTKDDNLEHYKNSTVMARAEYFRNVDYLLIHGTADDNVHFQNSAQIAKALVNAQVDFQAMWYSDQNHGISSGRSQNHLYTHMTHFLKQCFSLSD
Method: (§1) Peptide potencies (IC50) to inhibit the FAP enzymatic activity were determined using a fluorescence-based assay towards the biotinylated His, Avi tag, human FAP (26-760, FAP-H82Q6) and the biotinylated His, Avi tag, mouse FAP (26-761, FAP-M82Q5). Standard assay conditions consisted of 20 μL total volume in white 384-well plates (Greiner, Ref. 784075), in 50 mM phosphate buffer pH 7.5 containing 150 mM NaCl, 0.05% Tween20 and 1% final DMSO. Tested peptides at 14 different concentrations up to 1 μM were added to 0.01 nM human or mouse FAP. The peptides were incubated for 24 hours together with the protein before adding the substrate 50 μM Z-Gly-Pro-AMC (I-1145 from Bachem). Samples were then incubated at 22-24° C. for 4 h before reading the fluorescence at excitation wavelength of 380 nm and emission wavelength of 460 nm using the Tecan Infinite® M1000 PRO. The high control (100% activity) was not containing any peptide, and an internal potent peptide was added at 10 μM concentration for the low control (100% inhibition). IC50 values were calculated by curve fitting using an in-house developed software (Novartis Helios software application) using the method described by Fomenko et al., 2006 (regression algorithms for nonlinear dose-response curve fitting). Following normalization of activity values for the wells to % inhibition (% inhibition=[(high control-sample)/(high control-low control)]x 100). IC50 fitting was carried out from the duplicated points.

human FAP = molecular target: T2, human FAP (Homo sapiens, UniProt Q12884); assay: Enzymatic FAP competition assay (Z-Gly-Pro-AMC fluorescence), human FAP; format: biochemical; details: read-out: h. FAP, Enz., IC50
T2 construct: the biotinylated His, Avi tag, human FAP (26-760, FAP-H82Q6); His; Avi tag (biotinylated); purchased AcroBiosystems FAP-H82Q6
T2 sequence (Q12884 26-760): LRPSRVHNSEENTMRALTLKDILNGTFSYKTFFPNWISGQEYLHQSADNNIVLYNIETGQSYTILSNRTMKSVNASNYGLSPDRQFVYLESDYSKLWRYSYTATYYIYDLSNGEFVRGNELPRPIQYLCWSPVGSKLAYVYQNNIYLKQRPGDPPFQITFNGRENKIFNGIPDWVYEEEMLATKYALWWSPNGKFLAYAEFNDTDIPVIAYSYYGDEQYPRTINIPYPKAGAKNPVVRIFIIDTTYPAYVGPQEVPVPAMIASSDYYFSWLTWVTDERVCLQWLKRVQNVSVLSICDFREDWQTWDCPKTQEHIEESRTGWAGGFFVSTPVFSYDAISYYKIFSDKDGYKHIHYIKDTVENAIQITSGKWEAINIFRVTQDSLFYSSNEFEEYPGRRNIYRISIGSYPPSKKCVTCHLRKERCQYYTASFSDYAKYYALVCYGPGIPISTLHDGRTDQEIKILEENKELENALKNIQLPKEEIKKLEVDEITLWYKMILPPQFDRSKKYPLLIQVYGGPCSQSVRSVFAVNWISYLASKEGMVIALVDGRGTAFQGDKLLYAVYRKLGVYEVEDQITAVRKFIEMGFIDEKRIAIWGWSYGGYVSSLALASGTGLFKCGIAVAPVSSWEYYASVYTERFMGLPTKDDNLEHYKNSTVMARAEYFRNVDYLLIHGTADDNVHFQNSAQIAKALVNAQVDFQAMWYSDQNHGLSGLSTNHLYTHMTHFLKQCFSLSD
Method: as §1

mouse FAP [2] = molecular target: T1, mouse FAP; assay: Surface plasmon resonance (SPR) for peptide affinity, mouse FAP; format: binding
Method: Peptide affinities (KD) were determined by SPR using a Biacore™ 8K device (Cytiva) towards the following proteins: biotinylated His, Avi tag, human FAP (26-760, FAP-H82Q6), biotinylated His, Avi tag, mouse FAP (26-761, FAP-M82Q5), His tag, human DPP4 (34-766, DP4-H82E3), all purchased from AcroBiosystems and His tag, mouse DPP4 (29-760, 954-SE) from R&D Systems. The FAP proteins and their homologous were diluted to a concentration of 2 μg/mL into acetate buffer pH 5.5, then immobilized onto a CM5 sensorchip (Cytiva, BR-1005-30) to reach a response around 2000 R U. The running buffer HBS-EP+pH 7.6 (20× from Teknova CAT. No: H8022) contained 10 mM HEPES pH 7.6, 150 mM NaCl, 3 mM EDTA, 0.05% Tween20 and 2% DMSO. Experiments were carried out at 25° C. using a flow rate of 30 μL/min. Compounds were tested in single cycle kinetic mode at 8 different concentrations. Curve fitting was performed using the Biacore™ 8K evaluation software. The sensorgrams were fitted by applying a 1:1 binding model to calculate kinetic rate constants and equilibrium dissociation constants (KD).
For this assay, the setup had the same conditions (flow rate, running buffer, peptide dilution) as described above for the CM5 method. The oligo CAP reagent obtained in the CAPture Kit (Ref. 28920234) was 1/5 diluted into running buffer and used with a contact time of 300 s at a flow rate of 2 μL/min. The human and mouse FAP constructs described above were used (from AcroBiosystems or produced in house). The FAP proteins were diluted to a concentration of 2 μg/mL into acetate pH 5.5, 0.05% Tween20 and used with a contact time of 600 s at a flow rate of 10 μL/min. The peptides were tested with an association time of 280 s followed by a dissociation time of 3000 s at a flow rate of 30 μL/min. The regeneration was done using the regeneration solution (8 M guanidine-HCl, 1 M NaOH) as obtained with a contact time of 270 s at a flow rate of 10 μL/min. […] The compounds marked with an asterisk were tested against human and mouse DDP4.

Row | Compound | IC50 (mouse FAP [1]) [nM] | IC50 (human FAP) [nM] | Kd (mouse FAP [2]) [nM]
1 | CCCCC[C@@H]1NC(=O)[C@H](Cc2ccc(O)cc2)NC(=O)[C@H](CC2CCCCC2)N(C)C(=O)CNC(=O)[C@H](CCCCN)NC(=O)[C@H]2CCCN2C(=O)[C@H](CC(=O)O)NC(=O)[C@H](Cc2ccc(O)cc2)NC(=O)CNC(=O)[C@H](Cc2c[nH]c3ccccc23)NC1=O [Example A43, Lys-Gly-NMecHexA-Tyr-Ahp-Trp-Gly-Tyr-Asp-D-Pro, TFA salt] (cyclo([Ahp(2)]WGYD[dP]KG[NMeCha]Y)) | 0.189 | 0.069 | 0.188
2 | CCCCC[C@@H]1NC(=O)[C@H](Cc2ccc(O)cc2)NC(=O)[C@H](Cc2ccccc2)N(C)C(=O)CNC(=O)CNC(=O)[C@@]2(C)CCCN2C(=O)[C@H](CC(=O)O)NC(=O)[C@H](Cc2ccc(O)cc2)NC(=O)CNC(=O)[C@H](Cc2c[nH]c3ccccc23)NC1=O [Example A70, Gly-Gly-NMePhe-Tyr-Ahp-Trp-Gly-Tyr-Asp-D-aMeP] (cyclo([Ahp(2)]WGYD[d(αMeP)]GG[NMeF]Y)) | 0.116 | 0.036 | 0.104

Further lines, results first:

Row | IC50 (mouse FAP [1]) [nM] | IC50 (human FAP) [nM] | Kd (mouse FAP [2]) [nM] | Compound
3 | 0.026 | 0.012 | < 0.02 | Gly-Gly-NMePhe-F(4amPEG2NHRDOTAGA-Lu)-hS(Pr)-Trp-Gly-K(COpipzaa)-Asp-D-Pro (cyclo(GG[NMeF][F(4amPEG2NHRDOTAGA-Lu)][hS(Pr)]WGK(COpipzaa)D[dP]); also: Lu complex) [Example C33]
4 | 0.016 | 0.005 | < 0.012 | Gly-Gly-NMePhe-F(4amPEG2NHDOTA-Ga)-Ahp-Trp-Gly-Tyr-Asp-D-Pro (cyclo(GG[NMeF][F(4amPEG2NHDOTA-Ga)][Ahp(2)]WGYD[dP]); also: Ga complex) [Example C49]
5 | 0.009 | 0.003 | 0.013 | Gly-Gly-NMePhe-F(4amPEG2NHDOTA-Lu)-Ahp-Trp-Gly-Tyr-Asp-D-Pro (cyclo(GG[NMeF][F(4amPEG2NHDOTA-Lu)][Ahp(2)]WGYD[dP]); also: Lu complex) [Example C15]
